For one protein, Km, kcat and kcat/Km results are on record in publication PMC4575908.

Substrate in this data set: O=C(O)[C@H]1O[C@@H](Oc2ccc([N+](=O)[O-])cc2)[C@H](O)[C@@H](O)[C@@H]1O
The data set is classed as biochemical. The following applies: 37.0 °C.

B1: SaGUS (Streptococcus agalactiae 2603V/R) (protein)
chain: MLYPLLTKTRNTYDLGGIWNFKLGEHNPNELLPSDEVMVIPTSFNDLMVSKEKRDYIGDFWYEKVIEVPKVSEDEEMVLRFGSVTHQAKIYVDGVLVGEHKGGFTPFEVLVPECKYNNEKIKVSICANNVLDYTTLPVGNYSEIIQEDGSIKKKVRENFDFFNYAGVHRPLKLMIRPKNHIFDITITSRLSDDLQSADLHFLVETNQKVDEVRISVFDEDNKLVGETKDSRLFLSDVHLWEVLNAYLYTARVEIFVDNQLQDVYEENFGLREIEVTNGQFLLNRKPIYFKGFGKHEDTFINGRGLNEAANLMDLNLLKDMGANSFRTSHYPYSEEMMRLADRMGVLVIDEVPAVGLFQNFNASLDLSPKDNGTWNLMQTKAAHEQAIQELVKRDKNHPSVVMWVVANEPASHEAGAHDYFEPLVKLYKDLDPQKRPVTLVNILMATPDRDQVMDLVDVVCLNRYYGWYVDHGDLTNAEVGIRKELLEWQDKFPDKPIIITEYGADTLPGLHSTWNIPYTEEFQCDFYEMSHRVFDGIPNLVGEQVWNFADFETNLMILRVQGNHKGLFSRNRQPKQVVKEFKKRWMTIPHYHNKKNSVK
As usually defined, the Km is the substrate concentration at which the rate is half of its maximum. Broadly, the kcat is the maximal rate divided by the concentration of active sites. What is called kcat/Km is the turnover number divided by the Michaelis constant. As for B1, the Km came out at 360 ± 30 µM, the kcat was determined as 80 ± 2 s⁻¹ and the kcat/Km came out at 224000 M⁻¹ s⁻¹.
